Results published in patent EP2096121A1 (Institut Pasteur Of Shanghai, dated 2009).

What was measured:
[1] = target: HIV-1 envelope pDOL (subtype B) (HIV-1 (subtype B)); assay: cell-based or functional assay
[2] = target: HIV-1 envelope Q168 (subtype A) (HIV-1 (subtype A)); assay: cell-based or functional assay

B1: GPI-scFv (TG15): scFv/hinge/his-tag/DAF, anti-HIV-1 gp41 single-chain Fv derived from human monoclonal antibody TG15, GPI-anchored (scFv)
scFv: QVQLQQWGAGLLKPSETLSLTCAVYGDSFGGHHWSWIRQPPGKGLEWIGEINFLGNTNYNPSLKSRVAISKDTSKNQFSLTLNSATAADTAVYFCARRETMETASRKRAFDIWGQGTMETVTVSAGGGGSGGGGSGGGGSAELMETTQSPPTLSASVGDRVTITCRASQSLSGWVAWYQQKPGKAPKLLIYKASTLESGVPSRFSGSGSGTVFALTISSLQPDDSATYYCQQHSAFSSTFGQGTKLEIKRTPLGDTTHTSGHHHHHHGSGTTSGTTRLLSGHTCFTLTGLLGTLVTMETGLLT
relative luciferase activity (RLA), single-cycle pseudotype infectivity, CEMss-GPI-scFv compared to CEMss-eGFP [1]: 8 fold reduction | relative luciferase activity (RLA), single-cycle pseudotype infectivity, CEMss-GPI-scFv compared to CEMss-eGFP [2]: 180 fold reduction
